Data set [1] concerns the target T1, mtSSB WT-Alexa555/647 (human) (UniProt Q04837).
T1 sequence: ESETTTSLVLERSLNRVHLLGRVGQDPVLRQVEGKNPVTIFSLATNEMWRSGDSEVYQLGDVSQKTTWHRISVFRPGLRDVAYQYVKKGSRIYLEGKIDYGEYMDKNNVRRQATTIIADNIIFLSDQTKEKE
Nature of the data set: TIRF dissociation. As to conditions: EMSA: 20 mM Tris-HCl pH 7.8, 10 mM MgCl2, 0.1 mg/ml BSA, 10 mM DTT, 10% glycerol, 2 mM ATP, room temperature, TIRF: ssDNA diluted in 20 mM TrisOAc pH 8, 20% …. In general terms: Mobility shift assays separate free from complexed probe on a gel.

For data set [2], the system named is mtSSB R107Q-Alexa555/647 (human). The data set can be described thus: TIRF dissociation. As to conditions: unwrapping almost 3 times faster than WT, EMSA: 20 mM Tris-HCl pH 7.8, 10 mM MgCl2, 0.1 mg/ml BSA, 10 mM DTT, 10% glycerol, 2 mM ATP, room temperature, TIRF: ssDNA diluted in 20 mM TrisOAc pH 8, 20% ….
Data set [3] concerns the target T1, mtSSB WT-Alexa555/647 (human). Nature of the data set: competition. As to conditions: WT-Alexa647 vs R107Q-Alexa555 150 nM each (1:1); 24% of ssDNA WT only, 76% both; EMSA: 20 mM Tris-HCl pH 7.8, 10 mM MgCl2, 0.1 mg/ml BSA, 10 mM DTT, 10% glycerol, 2 mM ATP, room temperature; TIRF: ssDNA diluted in 20 mM TrisOAc pH 8, 20% ….
Data set [4] relates to mtSSB R107Q-Alexa555/647 (human). Nature of the data set: competition. Conditions: EMSA: 20 mM Tris-HCl pH 7.8, 10 mM MgCl2, 0.1 mg/ml BSA, 10 mM DTT, 10% glycerol, 2 mM ATP.
Data set [5] concerns the molecule itself. Nature of the data set: mass photometry; Refeyn TwoMP; proteins prepared at 1 uM and diluted to 100 nM before measurement; data collected for one minute; oligomeric state in solution (tetramer).
Data set [6] has as its target T2, mtSSB R107Q (His-tag, C-terminal Cys) (human, UniProt Q04837 17-148, R107Q).
T2 sequence: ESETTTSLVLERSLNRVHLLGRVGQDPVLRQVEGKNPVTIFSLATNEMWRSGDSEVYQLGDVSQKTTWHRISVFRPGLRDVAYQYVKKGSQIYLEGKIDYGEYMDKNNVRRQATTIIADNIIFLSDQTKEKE
Nature of the data set: BLI; 1:1 fit; Discussion swaps the 30/60-nt labels; EMSA: 20 mM Tris-HCl pH 7.8, 10 mM MgCl2, 0.1 mg/ml BSA, 10 mM DTT, 10% glycerol, 2 mM ATP, room temperature; TIRF: ssDNA diluted in 20 mM TrisOAc pH 8, 20% sucrose, 20 mM DTT, NaOAc 0-400 mM added; BLI and AFS buffers not in material. As to conditions: protein: recombinant; tags: N-terminal His; extra C-terminal Cys; chain copies: 4; single strand. Background: In BLI a coated tip is dipped into the sample, and binding shifts an interference pattern.

Data set [7] concerns the target T3, mtSSB WT (His-tag, C-terminal Cys) (human, UniProt Q04837 17-148).
T3 sequence: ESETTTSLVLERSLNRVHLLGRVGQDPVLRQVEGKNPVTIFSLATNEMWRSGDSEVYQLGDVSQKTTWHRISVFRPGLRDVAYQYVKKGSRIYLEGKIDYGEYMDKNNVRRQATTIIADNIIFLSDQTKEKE
The description is as above. As to conditions: protein: recombinant; tags: N-terminal His; extra C-terminal Cys; chain copies: 4; single strand.

As to lambda ssDNA, the binding signal (% lost after salt) in data set [1] (100 mM NaOAc) is 20; in data set [1] (400 mM NaOAc), 20; in data set [2] (100 mM NaOAc), 40; in data set [2] (400 mM NaOAc), 77. The binding signal (% of mtSSB on co-coated ssDNA) in data set [3] amounted to 73; in data set [4] (R107Q-Alexa555 150 nM vs WT-Alexa647 15 nM (1:0.1), room …, TIRF: ssDNA diluted in 20 mM TrisOAc pH 8, 20% suc), 94. The binding signal (% of ssDNA coated by R107Q only) in data set [4] (R107Q-Alexa555 vs WT-Alexa647 150 nM each (1:1), bound only together with WT, room temperature, TIRF: ssDNA diluted in 20 mM TrisOAc pH 8, 20% …) was 0.

B1: Mitochondrial single-stranded DNA-binding protein, wild type (mtSSB^WT), lacking the mitochondrial targeting sequence, with N-terminal His-tag and C-terminal … (natural protein, human)
chain: ESETTTSLVLERSLNRVHLLGRVGQDPVLRQVEGKNPVTIFSLATNEMWRSGDSEVYQLGDVSQKTTWHRISVFRPGLRDVAYQYVKKGSRIYLEGKIDYGEYMDKNNVRRQATTIIADNIIFLSDQTKEKEC
notes: one cysteine residue added at the C-terminus for maleimide labelling; not shown: His-tag, N-terminal, kept
In general, stoichiometry N refers to the number of molecules, sites or subunits per partner or assembly. Regarding B1, in data set [5], the “stoichiometry N” value was determined as 4.

B2: Mitochondrial single-stranded DNA-binding protein variant R107Q (mtSSB^R107Q), lacking the mitochondrial targeting sequence, with N-terminal His-tag and … (natural protein, human)
chain: ESETTTSLVLERSLNRVHLLGRVGQDPVLRQVEGKNPVTIFSLATNEMWRSGDSEVYQLGDVSQKTTWHRISVFRPGLRDVAYQYVKKGSQIYLEGKIDYGEYMDKNNVRRQATTIIADNIIFLSDQTKEKEC
notes: one cysteine residue added at the C-terminus for maleimide labelling; R107Q is a variant found in patients; PDB 6RUP is the wild-type parent's structure; not shown: His-tag, N-terminal, kept
For the molecule B2, the “stoichiometry N” value in data set [5] came out at 4.

B3: poly-dT60 (ssDNA)
DNA: TTTTTTTTTTTTTTTTTTTTTTTTTTTTTTTTTTTTTTTTTTTTTTTTTTTTTTTTTTTT
For orientation: Kd means the equilibrium constant for the complex coming apart. On to B3, for which the values for the Kd in data set [6] and in data set [7] were 1.18 ± 0.02 nM and 1.17 ± 0.02 nM, respectively.

TTTTTTTTTTTTTTTTTTTTTTTTTTTTTT (ssDNA) [poly-dT30]: the Kd in data set [6] is 1.35 ± 0.04 nM; in data set [7], 2.18 ± 0.1 nM.
